# Target: M2e-VHH-23m (llama)
# Assay: ITC
# Chain of M2e-VHH-23m (llama) (VHH, as listed by the source): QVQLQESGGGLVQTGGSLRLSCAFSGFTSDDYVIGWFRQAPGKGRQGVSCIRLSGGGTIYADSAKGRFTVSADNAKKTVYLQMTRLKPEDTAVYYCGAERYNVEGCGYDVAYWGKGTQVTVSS
binder,measurement,value
SLLTEVETPIRNEWGCRCNDSSD [human H3N2 M2e peptide],Ka,1.37e+06 M⁻¹

# Source: paper PMC6921966 (2019)
